In patent US20230357348A1 (AstraZeneca / MedImmune, published 2023):
Each block holds one binder with its values, some of them ahead of it. Starred links: 1 amine or outer side, 2 acyl side, 3 side chain; linkers in the order of their positions; H or OH if unused. Non-standard residues stand in square brackets, D forms with d. Groups on a side chain read outwards from the residue. No end group written: not given here. *: point of attachment. C18 diacid = O=C(O)CCCCCCCCCCCCCCCCC(=O)*; γGlu = O=C(O)[C@H](CCC(=O)[*:2])N[*:1]; αMeF = C[C@](N)(Cc1ccccc1)C(=O)O; AEEA = NCCOCCOCC(=O)O; Aib = CC(C)(N)C(=O)O

Key:
[1] = target: human GLP-1 receptor (hGLP-1R) (human, UniProt P43220 24-463); test: cell-based or functional assay
[2] = target: human glucagon receptor (hGCGR) (human, UniProt P47871 26-477); test: cell-based or functional assay
Sequence of human glucagon receptor (hGCGR) (P47871 26-477): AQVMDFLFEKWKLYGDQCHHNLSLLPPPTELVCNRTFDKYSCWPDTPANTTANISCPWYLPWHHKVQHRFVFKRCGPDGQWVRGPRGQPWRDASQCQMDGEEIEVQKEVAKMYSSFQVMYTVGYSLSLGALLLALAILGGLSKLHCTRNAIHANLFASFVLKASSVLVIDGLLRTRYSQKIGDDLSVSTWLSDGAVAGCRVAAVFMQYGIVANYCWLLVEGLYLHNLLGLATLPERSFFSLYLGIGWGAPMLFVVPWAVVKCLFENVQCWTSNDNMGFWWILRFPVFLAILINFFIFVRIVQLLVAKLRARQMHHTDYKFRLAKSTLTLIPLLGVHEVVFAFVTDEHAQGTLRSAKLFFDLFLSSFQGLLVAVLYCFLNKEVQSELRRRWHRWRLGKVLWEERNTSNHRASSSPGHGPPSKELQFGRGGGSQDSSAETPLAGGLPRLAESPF

B2: Peptide 33 (peptide)
peptide: H[Aib]QGTFTSDVSK[αMeF]LDSK([AEEA-AEEA-γGlu-C18 diacid])RAQDFVQWLE[Aib]T-OH
modifications: N-terminus assumed
SMILES: CC(C)C[C@H](NC(=O)[C@H](Cc1c[nH]c2ccccc12)NC(=O)[C@H](CCC(N)=O)NC(=O)[C@@H](NC(=O)[C@H](Cc1ccccc1)NC(=O)[C@H](CC(=O)O)NC(=O)[C@H](CCC(N)=O)NC(=O)[C@H](C)NC(=O)[C@H](CCCNC(=N)N)NC(=O)[C@H](CCCCNC(=O)COCCOCCNC(=O)COCCOCCNC(=O)CC[C@H](NC(=O)CCCCCCCCCCCCCCCCC(=O)O)C(=O)O)NC(=O)[C@H](CO)NC(=O)[C@H](CC(=O)O)NC(=O)[C@H](CC(C)C)NC(=O)[C@](C)(Cc1ccccc1)NC(=O)[C@H](CCCCN)NC(=O)[C@H](CO)NC(=O)[C@@H](NC(=O)[C@H](CC(=O)O)NC(=O)[C@H](CO)NC(=O)[C@@H](NC(=O)[C@H](Cc1ccccc1)NC(=O)[C@@H](NC(=O)CNC(=O)[C@H](CCC(N)=O)NC(=O)C(C)(C)NC(=O)[C@@H](N)Cc1c[nH]cn1)[C@@H](C)O)[C@@H](C)O)C(C)C)C(C)C)C(=O)N[C@@H](CCC(=O)O)C(=O)NC(C)(C)C(=O)N[C@H](C(=O)O)[C@@H](C)O
- hGLP-1R EC50 (pM) [1]: 213 pM
- hGluc-R EC50 (pM) [2]: 548 pM

B4: Peptide 35 (peptide)
peptide: H[Aib]QGTFTSDVSK[αMeF]LDTK([AEEA-AEEA-γGlu-C18 diacid])RAQDFVQWLL[Aib]T-OH
modifications: N-terminus assumed
SMILES: CC(C)C[C@H](NC(=O)[C@H](Cc1c[nH]c2ccccc12)NC(=O)[C@H](CCC(N)=O)NC(=O)[C@@H](NC(=O)[C@H](Cc1ccccc1)NC(=O)[C@H](CC(=O)O)NC(=O)[C@H](CCC(N)=O)NC(=O)[C@H](C)NC(=O)[C@H](CCCNC(=N)N)NC(=O)[C@H](CCCCNC(=O)COCCOCCNC(=O)COCCOCCNC(=O)CC[C@H](NC(=O)CCCCCCCCCCCCCCCCC(=O)O)C(=O)O)NC(=O)[C@@H](NC(=O)[C@H](CC(=O)O)NC(=O)[C@H](CC(C)C)NC(=O)[C@](C)(Cc1ccccc1)NC(=O)[C@H](CCCCN)NC(=O)[C@H](CO)NC(=O)[C@@H](NC(=O)[C@H](CC(=O)O)NC(=O)[C@H](CO)NC(=O)[C@@H](NC(=O)[C@H](Cc1ccccc1)NC(=O)[C@@H](NC(=O)CNC(=O)[C@H](CCC(N)=O)NC(=O)C(C)(C)NC(=O)[C@@H](N)Cc1c[nH]cn1)[C@@H](C)O)[C@@H](C)O)C(C)C)[C@@H](C)O)C(C)C)C(=O)N[C@@H](CC(C)C)C(=O)NC(C)(C)C(=O)N[C@H](C(=O)O)[C@@H](C)O
- hGLP-1R EC50 (pM) [1]: 83.7 pM
- hGluc-R EC50 (pM) [2]: 335 pM

B6: Peptide 34 (peptide)
peptide: H[Aib]QGTFTSDVSK[αMeF]LDSK([AEEA-AEEA-γGlu-C18 diacid])RAQDFVQWLL[Aib]E-OH
modifications: N-terminus assumed
SMILES: CC(C)C[C@H](NC(=O)[C@H](Cc1c[nH]c2ccccc12)NC(=O)[C@H](CCC(N)=O)NC(=O)[C@@H](NC(=O)[C@H](Cc1ccccc1)NC(=O)[C@H](CC(=O)O)NC(=O)[C@H](CCC(N)=O)NC(=O)[C@H](C)NC(=O)[C@H](CCCNC(=N)N)NC(=O)[C@H](CCCCNC(=O)COCCOCCNC(=O)COCCOCCNC(=O)CC[C@H](NC(=O)CCCCCCCCCCCCCCCCC(=O)O)C(=O)O)NC(=O)[C@H](CO)NC(=O)[C@H](CC(=O)O)NC(=O)[C@H](CC(C)C)NC(=O)[C@](C)(Cc1ccccc1)NC(=O)[C@H](CCCCN)NC(=O)[C@H](CO)NC(=O)[C@@H](NC(=O)[C@H](CC(=O)O)NC(=O)[C@H](CO)NC(=O)[C@@H](NC(=O)[C@H](Cc1ccccc1)NC(=O)[C@@H](NC(=O)CNC(=O)[C@H](CCC(N)=O)NC(=O)C(C)(C)NC(=O)[C@@H](N)Cc1c[nH]cn1)[C@@H](C)O)[C@@H](C)O)C(C)C)C(C)C)C(=O)N[C@@H](CC(C)C)C(=O)NC(C)(C)C(=O)N[C@@H](CCC(=O)O)C(=O)O
- hGLP-1R EC50 (pM) [1]: 82.4 pM
- hGluc-R EC50 (pM) [2]: 161 pM

B7: Peptide 36 (peptide)
peptide: H[Aib]QGTFTSDVSK[αMeF]LDSK([AEEA-AEEA-γGlu-C18 diacid])RARDFVQWLL[Aib]T-OH
modifications: N-terminus assumed
SMILES: CC(C)C[C@H](NC(=O)[C@H](Cc1c[nH]c2ccccc12)NC(=O)[C@H](CCC(N)=O)NC(=O)[C@@H](NC(=O)[C@H](Cc1ccccc1)NC(=O)[C@H](CC(=O)O)NC(=O)[C@H](CCCNC(=N)N)NC(=O)[C@H](C)NC(=O)[C@H](CCCNC(=N)N)NC(=O)[C@H](CCCCNC(=O)COCCOCCNC(=O)COCCOCCNC(=O)CC[C@H](NC(=O)CCCCCCCCCCCCCCCCC(=O)O)C(=O)O)NC(=O)[C@H](CO)NC(=O)[C@H](CC(=O)O)NC(=O)[C@H](CC(C)C)NC(=O)[C@](C)(Cc1ccccc1)NC(=O)[C@H](CCCCN)NC(=O)[C@H](CO)NC(=O)[C@@H](NC(=O)[C@H](CC(=O)O)NC(=O)[C@H](CO)NC(=O)[C@@H](NC(=O)[C@H](Cc1ccccc1)NC(=O)[C@@H](NC(=O)CNC(=O)[C@H](CCC(N)=O)NC(=O)C(C)(C)NC(=O)[C@@H](N)Cc1c[nH]cn1)[C@@H](C)O)[C@@H](C)O)C(C)C)C(C)C)C(=O)N[C@@H](CC(C)C)C(=O)NC(C)(C)C(=O)N[C@H](C(=O)O)[C@@H](C)O
- hGLP-1R EC50 (pM) [1]: 43.1 pM
- hGluc-R EC50 (pM) [2]: 278 pM

Further lines, results first:

- hGLP-1R EC50 (pM) [1]: 48 pM
- hGluc-R EC50 (pM) [2]: 270 pM
B1: Peptide 166 (peptide)
peptide: H[Aib]QGTFTSDVSK[αMeF]LDSK([AEEA-AEEA-γGlu-C18 diacid])RARDFVRWLL[Aib]TE-OH
modifications: N-terminus assumed
SMILES: CC(C)C[C@H](NC(=O)[C@H](Cc1c[nH]c2ccccc12)NC(=O)[C@H](CCCNC(=N)N)NC(=O)[C@@H](NC(=O)[C@H](Cc1ccccc1)NC(=O)[C@H](CC(=O)O)NC(=O)[C@H](CCCNC(=N)N)NC(=O)[C@H](C)NC(=O)[C@H](CCCNC(=N)N)NC(=O)[C@H](CCCCNC(=O)COCCOCCNC(=O)COCCOCCNC(=O)CC[C@H](NC(=O)CCCCCCCCCCCCCCCCC(=O)O)C(=O)O)NC(=O)[C@H](CO)NC(=O)[C@H](CC(=O)O)NC(=O)[C@H](CC(C)C)NC(=O)[C@](C)(Cc1ccccc1)NC(=O)[C@H](CCCCN)NC(=O)[C@H](CO)NC(=O)[C@@H](NC(=O)[C@H](CC(=O)O)NC(=O)[C@H](CO)NC(=O)[C@@H](NC(=O)[C@H](Cc1ccccc1)NC(=O)[C@@H](NC(=O)CNC(=O)[C@H](CCC(N)=O)NC(=O)C(C)(C)NC(=O)[C@@H](N)Cc1c[nH]cn1)[C@@H](C)O)[C@@H](C)O)C(C)C)C(C)C)C(=O)N[C@@H](CC(C)C)C(=O)NC(C)(C)C(=O)N[C@H](C(=O)N[C@@H](CCC(=O)O)C(=O)O)[C@@H](C)O

- hGLP-1R EC50 (pM) [1]: 172 pM
- hGluc-R EC50 (pM) [2]: 386 pM
B3: Peptide 519 (peptide)
peptide: H[Aib]QGTFTSDVSK[αMeF]LDTK([γGlu-γGlu-AEEA-AEEA-γGlu-γGlu-C18 diacid])RARDFVQWLLE[Aib]G-OH
modifications: N-terminus assumed
SMILES: CC(C)C[C@H](NC(=O)[C@H](Cc1c[nH]c2ccccc12)NC(=O)[C@H](CCC(N)=O)NC(=O)[C@@H](NC(=O)[C@H](Cc1ccccc1)NC(=O)[C@H](CC(=O)O)NC(=O)[C@H](CCCNC(=N)N)NC(=O)[C@H](C)NC(=O)[C@H](CCCNC(=N)N)NC(=O)[C@H](CCCCNC(=O)CC[C@H](NC(=O)CC[C@H](NC(=O)COCCOCCNC(=O)COCCOCCNC(=O)CC[C@H](NC(=O)CC[C@H](NC(=O)CCCCCCCCCCCCCCCCC(=O)O)C(=O)O)C(=O)O)C(=O)O)C(=O)O)NC(=O)[C@@H](NC(=O)[C@H](CC(=O)O)NC(=O)[C@H](CC(C)C)NC(=O)[C@](C)(Cc1ccccc1)NC(=O)[C@H](CCCCN)NC(=O)[C@H](CO)NC(=O)[C@@H](NC(=O)[C@H](CC(=O)O)NC(=O)[C@H](CO)NC(=O)[C@@H](NC(=O)[C@H](Cc1ccccc1)NC(=O)[C@@H](NC(=O)CNC(=O)[C@H](CCC(N)=O)NC(=O)C(C)(C)NC(=O)[C@@H](N)Cc1c[nH]cn1)[C@@H](C)O)[C@@H](C)O)C(C)C)[C@@H](C)O)C(C)C)C(=O)N[C@@H](CC(C)C)C(=O)N[C@@H](CCC(=O)O)C(=O)NC(C)(C)C(=O)NCC(=O)O

- hGLP-1R EC50 (pM) [1]: 31 pM
- hGluc-R EC50 (pM) [2]: 77.3 pM
B5: Peptide 518 (peptide)
peptide: H[Aib]QGTFTSDVSK[αMeF]LDTK([AEEA-AEEA-γGlu-γGlu-C18 diacid])RARDFVQWLLE[Aib]G-OH
modifications: N-terminus assumed
SMILES: CC(C)C[C@H](NC(=O)[C@H](Cc1c[nH]c2ccccc12)NC(=O)[C@H](CCC(N)=O)NC(=O)[C@@H](NC(=O)[C@H](Cc1ccccc1)NC(=O)[C@H](CC(=O)O)NC(=O)[C@H](CCCNC(=N)N)NC(=O)[C@H](C)NC(=O)[C@H](CCCNC(=N)N)NC(=O)[C@H](CCCCNC(=O)COCCOCCNC(=O)COCCOCCNC(=O)CC[C@H](NC(=O)CC[C@H](NC(=O)CCCCCCCCCCCCCCCCC(=O)O)C(=O)O)C(=O)O)NC(=O)[C@@H](NC(=O)[C@H](CC(=O)O)NC(=O)[C@H](CC(C)C)NC(=O)[C@](C)(Cc1ccccc1)NC(=O)[C@H](CCCCN)NC(=O)[C@H](CO)NC(=O)[C@@H](NC(=O)[C@H](CC(=O)O)NC(=O)[C@H](CO)NC(=O)[C@@H](NC(=O)[C@H](Cc1ccccc1)NC(=O)[C@@H](NC(=O)CNC(=O)[C@H](CCC(N)=O)NC(=O)C(C)(C)NC(=O)[C@@H](N)Cc1c[nH]cn1)[C@@H](C)O)[C@@H](C)O)C(C)C)[C@@H](C)O)C(C)C)C(=O)N[C@@H](CC(C)C)C(=O)N[C@@H](CCC(=O)O)C(=O)NC(C)(C)C(=O)NCC(=O)O

- hGLP-1R EC50 (pM) [1]: 543 pM
- hGluc-R EC50 (pM) [2]: 1620 pM
Binder: H[Aib]QGTFTSDVSK[αMeF]LDTKRARDFVQWLLE[Aib]G-OH (not fully specified (residue 17)) [Peptide 520]
